According to patent US20250263697, “COMPOSITIONS AND METHODS OF MODULATING RNA AND PROTEIN INTERACTIONS” (The Regents of the University of California, published 2025):

Biological target: NSP12 (RNA-dependent RNA polymerase) (SARS-CoV-2, UniProt P0DTD1 P0DTD1:4393-5324)
Assay: FP

B1: Scov2_7431_7555_RNA (ssRNA)
RNA: GGGCGAAAACGCCCCAUUUUAUUAUGUAUGGAAAAGUUAUGUGCAUGUUGUAGACGGUUGUAAUUCAUCAACUUGUAUGAUGUGUUACAAACGUAAUAGAGCAACAAGAGUCGAAUGUACAACUAUUGUUAAUGGUGUU
Kd: 17 nM
